Experimental data from patent publication US20070293656A1, “COLLAGEN BINDING PEPTIDES” (Epix Pharmaceuticals, Inc., priority 2005, published 2007).
Like-named read-outs stand apart in the source and are kept apart here. Values belong to the molecule of their own block, whether it stands above or below them. Bridge positions count the residues as written; N and C are the ends. Square brackets hold non-standard residues; d marks the D form. Primed or numbered codes have the meaning given here. Side chains are listed from the residue outwards. Ends that are not written are not given here. * marks the point of attachment. GdT″ = Gd-DTPA chelate conjugated through a thiourea; Dip = N[C@H](C(=O)O)C(c1ccccc1)c1ccccc1; Orn = NCCC[C@H](N)C(=O)O; Gd^T″ = GdDTPA-thiourea; Cbz = O=C(OCc1ccccc1)*

Columns and labels:
[1] = target: T1, rat collagen type I (Rattus norvegicus, UniProt P02454+P02466); assay: Dried collagen assay (DCA): percent binding to dried rat collagen; conditions: 5 μM peptide in PBS, pH 7.4, 2 hours at room temperature
T1 construct: Rat collagen (acid soluble, type I, rat tail); purchased Upstate USA, Inc 08-115; host or cells: rat tail
Protocol: Rat collagen (acid soluble, type I, rat tail, Upstate USA, Inc, cat #08-115) is dialyzed against 10 mM Phosphate (NaH2PO4), pH 4.2 with three changes of the dialysis buffer. For the final assay, a 1:10 volume of 10×PBS (100 mM NaH2PO4, 1.5 M NaCl pH 7.4) is added to the collagen solution (final 1×PBS) and incubated at 37° C. for 2 hours. The gelation is typically 90%.
(§1) An additional 90 μL is reserved in a HPLC glass vial as a measure of the total concentration.

[2] = target: T2, human collagen type I (Homo sapiens, UniProt P02452+P08123); assay: Dried collagen assay (DCA): percent binding to dried human collagen; conditions: 5 μM peptide in PBS, pH 7.4, 2 hours at room temperature
T2 construct: Acid soluble human collagen extracted from placenta; purchased Sigma C7774 (lot #083K375); host or cells: human placenta
Protocol: Acid soluble human collagen extracted from placenta (Sigma, cat #C7774, lot #083K375) is dissolved in 15 mM HCl (3.5 mg/ml) by vortexing and gently shaking for 3-4 hours at 4° C. The acid soluble collagen is […] against PBS, pH 7.4 (three buffer exchanges are used). The […] protein concentration is determined by the BCA method (Pierce, Cat #23225) using bovine collagen (Vitrogen, cat #FXP-019) as a reference standard. Percent gelation (fibril formation) of the collagen is determined by incubating 10 μM collagen (3.3 mg/ml) at 37° C. for 6 hours. A typical percent gelation is 60%.
as §1

[3] = target: T3, rat collagen (acid soluble, type I, rat tail, Upstate 08-115) (rat, UniProt P02454 152-1207; P02466 86-1125); assay: dried collagen assay
T3 construct: also called dried rat collagen; insoluble rat collagen

[4] = target: T4, human collagen type I (acid soluble, extracted from placenta, Sigma C7774) (human, UniProt P02452 162-1218; P08123 80-1119); assay: dried collagen assay
T4 construct: gelled and dried as a fibril film in the assay; also called dried human collagen; h-Collagen

[5] = target: T3, rat collagen (acid soluble, type I, rat …); assay: dried collagen assay; remark: listed apart in the source
[6] = target: T4, human collagen type I (acid soluble, …); assay: dried collagen assay; remark: listed apart in the source
[7] = target: T3, rat collagen (acid soluble, type I, rat …); assay: dried collagen assay; remark: listed apart in the source
[8] = target: T3, rat collagen (acid soluble, type I, rat …); assay: dried collagen assay; remark: listed apart in the source
[9] = target: T4, human collagen type I (acid soluble, …); assay: dried collagen assay; remark: listed apart in the source
[10] = target: human collagen type I (acid soluble, extracted from placenta, Sigma C7774) (human) (UniProt P02452); assay: dried collagen assay
[11] = target: rat collagen (acid soluble, type I, rat tail, Upstate 08-115) (rat) (UniProt P02454); assay: dried collagen assay
Chain of rat collagen (acid soluble, type I, rat tail, Upstate 08-115) (rat) (P02454 152-1207 limits assumed, chain 1 of 2): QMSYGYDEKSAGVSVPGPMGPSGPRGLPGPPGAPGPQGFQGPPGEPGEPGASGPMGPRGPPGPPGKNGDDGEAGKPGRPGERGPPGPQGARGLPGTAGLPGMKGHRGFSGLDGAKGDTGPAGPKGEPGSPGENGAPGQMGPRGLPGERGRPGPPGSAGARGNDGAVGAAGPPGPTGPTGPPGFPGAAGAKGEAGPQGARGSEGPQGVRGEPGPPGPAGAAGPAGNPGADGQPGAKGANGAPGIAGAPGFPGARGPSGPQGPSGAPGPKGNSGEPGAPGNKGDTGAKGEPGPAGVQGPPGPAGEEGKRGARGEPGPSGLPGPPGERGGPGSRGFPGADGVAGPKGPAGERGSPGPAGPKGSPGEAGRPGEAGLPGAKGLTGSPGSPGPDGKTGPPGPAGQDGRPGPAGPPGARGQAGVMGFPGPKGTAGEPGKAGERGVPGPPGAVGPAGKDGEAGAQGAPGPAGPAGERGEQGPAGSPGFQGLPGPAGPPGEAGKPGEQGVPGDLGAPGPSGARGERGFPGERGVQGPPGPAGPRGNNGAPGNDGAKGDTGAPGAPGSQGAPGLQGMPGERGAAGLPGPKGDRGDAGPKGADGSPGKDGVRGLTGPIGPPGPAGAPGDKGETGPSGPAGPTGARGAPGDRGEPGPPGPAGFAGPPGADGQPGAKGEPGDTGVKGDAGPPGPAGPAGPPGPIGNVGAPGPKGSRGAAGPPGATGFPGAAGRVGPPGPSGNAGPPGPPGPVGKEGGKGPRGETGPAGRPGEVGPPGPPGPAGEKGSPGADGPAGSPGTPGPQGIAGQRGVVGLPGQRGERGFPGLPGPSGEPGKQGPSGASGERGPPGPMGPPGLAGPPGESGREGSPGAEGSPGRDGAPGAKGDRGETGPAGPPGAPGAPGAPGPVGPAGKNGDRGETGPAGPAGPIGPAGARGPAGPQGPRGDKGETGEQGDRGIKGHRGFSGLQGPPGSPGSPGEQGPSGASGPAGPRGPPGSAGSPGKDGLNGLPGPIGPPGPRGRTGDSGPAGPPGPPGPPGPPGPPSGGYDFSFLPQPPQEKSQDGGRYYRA
Chain of rat collagen (acid soluble, type I, rat tail, Upstate 08-115) (rat) (P02466 86-1125 limits assumed, chain 2 of 2, further chain): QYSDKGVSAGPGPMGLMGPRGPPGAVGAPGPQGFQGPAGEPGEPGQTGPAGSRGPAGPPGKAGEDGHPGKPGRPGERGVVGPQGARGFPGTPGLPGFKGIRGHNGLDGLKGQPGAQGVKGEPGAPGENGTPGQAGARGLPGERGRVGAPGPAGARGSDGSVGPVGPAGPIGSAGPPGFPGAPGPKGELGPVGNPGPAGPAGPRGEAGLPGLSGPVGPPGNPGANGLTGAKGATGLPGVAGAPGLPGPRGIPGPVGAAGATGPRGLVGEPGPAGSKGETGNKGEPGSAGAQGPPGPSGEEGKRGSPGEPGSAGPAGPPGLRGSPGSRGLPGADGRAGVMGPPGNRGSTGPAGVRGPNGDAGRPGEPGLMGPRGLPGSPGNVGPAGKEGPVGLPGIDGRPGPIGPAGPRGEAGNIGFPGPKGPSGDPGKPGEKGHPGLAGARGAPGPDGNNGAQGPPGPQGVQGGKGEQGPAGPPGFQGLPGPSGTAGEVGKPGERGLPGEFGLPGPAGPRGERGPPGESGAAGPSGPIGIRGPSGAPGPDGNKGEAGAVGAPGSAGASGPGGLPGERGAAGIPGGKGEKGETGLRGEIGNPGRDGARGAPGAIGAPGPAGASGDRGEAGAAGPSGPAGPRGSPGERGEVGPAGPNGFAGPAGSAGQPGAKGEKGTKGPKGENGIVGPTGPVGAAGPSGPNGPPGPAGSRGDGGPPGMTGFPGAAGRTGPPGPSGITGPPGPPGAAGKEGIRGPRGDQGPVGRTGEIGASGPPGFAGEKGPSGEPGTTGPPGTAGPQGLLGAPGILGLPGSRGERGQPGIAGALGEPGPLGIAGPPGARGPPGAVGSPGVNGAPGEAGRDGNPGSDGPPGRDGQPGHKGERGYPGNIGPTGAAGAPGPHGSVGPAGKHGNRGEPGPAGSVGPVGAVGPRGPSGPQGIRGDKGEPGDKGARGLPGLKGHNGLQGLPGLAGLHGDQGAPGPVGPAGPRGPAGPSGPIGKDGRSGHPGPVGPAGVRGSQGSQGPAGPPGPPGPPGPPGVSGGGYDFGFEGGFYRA

T2 sequence (P02452 162-1218 limits assumed): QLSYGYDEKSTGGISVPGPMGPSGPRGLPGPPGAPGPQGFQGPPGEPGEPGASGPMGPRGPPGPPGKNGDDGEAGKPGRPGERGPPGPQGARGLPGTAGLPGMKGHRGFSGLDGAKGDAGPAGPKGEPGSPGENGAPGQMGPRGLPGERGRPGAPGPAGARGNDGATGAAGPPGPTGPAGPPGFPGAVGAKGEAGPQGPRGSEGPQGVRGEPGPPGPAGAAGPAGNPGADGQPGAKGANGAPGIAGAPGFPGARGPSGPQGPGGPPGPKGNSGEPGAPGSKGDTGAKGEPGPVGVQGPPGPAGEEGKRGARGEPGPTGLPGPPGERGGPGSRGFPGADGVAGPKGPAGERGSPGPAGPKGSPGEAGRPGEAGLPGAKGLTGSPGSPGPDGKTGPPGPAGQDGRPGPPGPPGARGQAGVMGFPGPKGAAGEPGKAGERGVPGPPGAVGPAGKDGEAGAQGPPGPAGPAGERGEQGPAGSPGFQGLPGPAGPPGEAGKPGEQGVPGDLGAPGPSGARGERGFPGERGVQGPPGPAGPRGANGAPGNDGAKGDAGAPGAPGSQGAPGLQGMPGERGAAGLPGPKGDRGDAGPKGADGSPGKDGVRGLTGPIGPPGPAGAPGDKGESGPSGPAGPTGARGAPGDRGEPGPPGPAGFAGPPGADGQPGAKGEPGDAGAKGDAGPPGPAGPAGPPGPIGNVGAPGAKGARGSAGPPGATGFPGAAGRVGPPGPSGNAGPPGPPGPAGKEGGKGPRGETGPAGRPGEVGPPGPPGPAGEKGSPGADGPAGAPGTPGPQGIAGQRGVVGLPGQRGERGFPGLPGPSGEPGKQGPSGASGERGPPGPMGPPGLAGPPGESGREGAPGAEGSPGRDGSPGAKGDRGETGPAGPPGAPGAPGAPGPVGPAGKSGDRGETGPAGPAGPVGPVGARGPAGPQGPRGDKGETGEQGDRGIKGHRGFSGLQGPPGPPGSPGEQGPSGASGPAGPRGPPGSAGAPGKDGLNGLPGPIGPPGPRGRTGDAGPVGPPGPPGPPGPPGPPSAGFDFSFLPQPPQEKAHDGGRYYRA
T2 sequence (P08123 80-1119 limits assumed): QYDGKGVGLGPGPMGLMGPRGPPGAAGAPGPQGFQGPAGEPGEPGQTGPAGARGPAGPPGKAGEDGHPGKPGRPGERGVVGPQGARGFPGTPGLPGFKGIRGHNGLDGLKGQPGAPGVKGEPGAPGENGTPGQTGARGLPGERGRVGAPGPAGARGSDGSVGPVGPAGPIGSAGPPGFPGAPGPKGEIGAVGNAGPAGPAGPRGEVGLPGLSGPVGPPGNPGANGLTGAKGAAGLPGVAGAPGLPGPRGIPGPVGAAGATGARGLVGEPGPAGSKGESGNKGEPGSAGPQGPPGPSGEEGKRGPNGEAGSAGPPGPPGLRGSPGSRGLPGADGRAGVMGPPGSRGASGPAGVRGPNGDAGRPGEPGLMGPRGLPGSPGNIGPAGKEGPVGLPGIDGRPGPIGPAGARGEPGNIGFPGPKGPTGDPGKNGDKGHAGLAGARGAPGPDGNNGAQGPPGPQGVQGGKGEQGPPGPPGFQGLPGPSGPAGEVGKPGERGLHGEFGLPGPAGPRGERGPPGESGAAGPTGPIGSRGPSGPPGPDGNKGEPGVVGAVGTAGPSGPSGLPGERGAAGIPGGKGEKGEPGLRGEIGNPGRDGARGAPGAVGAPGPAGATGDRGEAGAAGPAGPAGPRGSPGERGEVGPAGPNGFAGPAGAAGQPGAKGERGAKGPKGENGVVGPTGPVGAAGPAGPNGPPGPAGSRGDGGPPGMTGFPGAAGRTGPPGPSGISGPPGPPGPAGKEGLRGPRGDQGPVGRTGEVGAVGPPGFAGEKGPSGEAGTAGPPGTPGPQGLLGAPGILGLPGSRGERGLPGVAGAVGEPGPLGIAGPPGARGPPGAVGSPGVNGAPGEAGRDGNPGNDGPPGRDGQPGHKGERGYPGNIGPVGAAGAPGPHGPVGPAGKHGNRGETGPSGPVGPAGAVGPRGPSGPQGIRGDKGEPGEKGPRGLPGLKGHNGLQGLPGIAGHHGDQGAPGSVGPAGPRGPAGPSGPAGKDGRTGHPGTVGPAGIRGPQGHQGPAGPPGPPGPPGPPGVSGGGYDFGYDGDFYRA
T4 sequence (P02452 162-1218 limits assumed, chain 1 of 2): as the sequence (P02452 162-1218 limits assumed) above
T4 sequence (P08123 80-1119 limits assumed, chain 2 of 2): as the sequence (P08123 80-1119 limits assumed) above
T1 sequence (P02454 152-1207 limits assumed): as the sequence (P02454 152-1207 limits assumed, chain 1 of 2) above
T1 sequence (P02466 86-1125 limits assumed): as the sequence (P02466 86-1125 limits assumed, chain 2 of 2, further chain) above
T3 sequence (P02454 152-1207 limits assumed, chain 1 of 2): as the sequence (P02454 152-1207 limits assumed, chain 1 of 2) above
T3 sequence (P02466 86-1125 limits assumed, chain 2 of 2): as the sequence (P02466 86-1125 limits assumed, chain 2 of 2, further chain) above
Chain of human collagen type I (acid soluble, extracted from placenta, Sigma C7774) (human) (P02452 162-1218 limits assumed, chain 1 of 2): as the sequence (P02452 162-1218 limits assumed) above
Chain of human collagen type I (acid soluble, extracted from placenta, Sigma C7774) (human) (P08123 80-1119 limits assumed, chain 2 of 2, further chain): as the sequence (P08123 80-1119 limits assumed) above

B1: SEQ ID NO: 115 (peptide)
peptide: DWTCSGDPYTWHCNYE
modifications: disulfide 4-13 (inferred)
- % bound [3]: 23%
- % bound [4]: 39%

B2: SEQ ID NO: 119 (peptide)
peptide: DWTCSGDEFTWHCNYE
modifications: disulfide 4-13 (inferred)
- % bound [3]: 55%
- % bound [4]: 55%

B3: SEQ ID NO: 132 (peptide)
peptide: YAACYQAGCWIW
modifications: disulfide 4-9 (inferred)
- % bound [5]: 37%
- % bound [6]: 53%

B4: SEQ ID NO: 138 (peptide)
peptide: YHACYQAGCWIA
modifications: disulfide 4-9 (inferred)
- % bound [5]: 1%
- % bound [6]: 2%

B5: SEQ ID NO: 118 (peptide)
peptide: DWTCSGNHLTWYCNYG
modifications: disulfide 4-13 (inferred)
- % bound [3]: 67%
- % bound [4]: 68%

B6: Comp ID 906 (peptide)
peptide: GQWHCTTRFPHHYXLYG
modifications: not fully specified; Gd^T-GQWHCTTRFPHHY-Pen-LYG
- % bound [7]: 5%

B11: Comp ID 941 (peptide)
peptide: Cbz-GQWHCT[Orn](Gd^T″)RFPHHYCLYG
modifications: disulfide 5-14; not fully specified (C-terminus); printed as cbz-GQWHCT-Orn(Gd^T)-RFPHHYCLYG
- % bound [10]: 8%
- % bound [7]: 5%

B12: SEQ ID NO: 116 (peptide)
peptide: DWTCSGDHLTWHCNYG
modifications: disulfide 4-13 (inferred)
- % bound [3]: 35%
- % bound [4]: 58%

B13: SEQ ID NO: 117 (peptide)
peptide: DWTCSGDHLTWKCNYG
modifications: disulfide 4-13 (inferred)
- % bound [3]: 24%
- % bound [4]: 38%

B15: SEQ ID NO: 153 (peptide)
peptide: Y[dH]ACYQAGCWIW
modifications: disulfide 4-9 (inferred)
- % bound [8]: 0%
- % bound [9]: 0%

B16: SEQ ID NO: 114 (peptide)
peptide: WTCSGDEYTWHCNYE
modifications: disulfide 3-12 (inferred)
- % bound [3]: 14%
- % bound [4]: 19%

B18: Comp ID 967 (peptide)
peptide: {Gd^T″}-GK([Gly-Gd^T″])WHCTTYFPHHYCL[Dip]G
modifications: disulfide 5-14 (inferred); not fully specified (C-terminus); printed as Gd^T-G-K(G.Gd^T)-WHCTTYFPHHYCL-Dip-G
- % bound [7]: 4%

B19: Comp ID 968 (peptide)
peptide: {GdT″}-GK([Gly-GdT″])WHCTTYFPHH[Dip]CLYG
modifications: disulfide 5-14; not fully specified (C-terminus)
- % bound [7]: 64%

B20: Comp ID 878 (peptide)
peptide: GQWHCTTRFPHAYCLYG
modifications: not fully specified; Gd^T-GQWHCTTRFPHAYCLYG
- % bound [10]: 8%
- % bound [7]: 9%

B21: Comp ID 885 (peptide)
peptide: GQWHCTTDFPHHYCLYG
modifications: not fully specified; Gd^T-GQWHCTTD-F(4-NH2)(Gd^T)-PHHYCLYG
- % bound [7]: 9%

B22: Comp ID 936 (peptide)
peptide: GQWHCTDRFPHHYCLYG
modifications: not fully specified; Gd^T-GQWHCTDRFPHHYCLYG
- % bound [7]: 5%

B23: SEQ ID NO: 131 (peptide)
peptide: AHACYQAGCWIW
modifications: disulfide 4-9 (inferred)
- % bound [5]: 12%
- % bound [6]: 7%

B24: SEQ ID NO: 137 (peptide)
peptide: YHACYQAGCWAW
modifications: disulfide 4-9 (inferred)
- % bound [11]: 7%
- % bound [6]: 4%

B25: SEQ ID NO: 135 (peptide)
peptide: YHACYQAACWIW
modifications: disulfide 4-9 (inferred)
- % bound [5]: 88%
- % bound [6]: 72%

B26: SEQ ID NO: 136 (peptide)
peptide: YHACYQAGCAIW
modifications: disulfide 4-9 (inferred)
- % bound [5]: 2%
- % bound [6]: 2%

B27: SEQ ID NO: 134 (peptide)
peptide: YHACYAAGCWIW
modifications: disulfide 4-9 (inferred)
- % bound [5]: 1%
- % bound [6]: 14%

B28: SEQ ID NO: 133 (peptide)
peptide: YHACAQAGCWIW
modifications: disulfide 4-9 (inferred)
- % bound [5]: 5%
- % bound [6]: 4%

Other lines, results leading:

- % Collagen Binding Dried Rat [1]: 6%
Molecule: 171 (QWTCSGDE[dY]TWHCNYE; disulfide 4-13 (inferred)) [compound 171]

- % Collagen Binding Dried Human [2]: 2%
- % Collagen Binding Dried Rat [1]: 3%
Molecule: 166 (QW[dT]CSGDEYTWHCNYE; disulfide 4-13 (inferred)) [compound 166]

- % Collagen Binding Dried Human [2]: 5%
- % Collagen Binding Dried Rat [1]: 4%
Molecule: 173 (QWTCSGDEYT[dW]HCNYE; disulfide 4-13 (inferred)) [compound 173]

- % Collagen Binding Dried Rat [1]: 53%
Molecule: 163 ([dY][dH][dA][dC][dY][dQ][dA]G[dC][dW][dI][dW]; disulfide 4-9 (inferred)) [compound 163]

- % Collagen Binding Dried Human [2]: 2%
- % Collagen Binding Dried Rat [1]: 4%
Molecule: 165 (Q[dW]TCSGDEYTWHCNYE; disulfide 4-13 (inferred)) [compound 165]

- % Collagen Binding Dried Human [2]: 3%
- % Collagen Binding Dried Rat [1]: 2%
Molecule: 168 (QWTC[dS]GDEYTWHCNYE; disulfide 4-13 (inferred)) [compound 168]

- % Collagen Binding Dried Rat [1]: 4%
Molecule: 169 (QWTCSG[dD]EYTWHCNYE; disulfide 4-13 (inferred)) [compound 169]

- % Collagen Binding Dried Human [2]: 2%
- % Collagen Binding Dried Rat [1]: 2%
Molecule: 175 (QWTCSGDEYTWH[dC]NYE; disulfide 4-13 (inferred)) [compound 175]

- % Collagen Binding Dried Rat [1]: 7%
Molecule: 137 (YHACYQAGCWAW; disulfide 4-9 (inferred)) [compound 137]

- % Collagen Binding Dried Human [2]: 2%
- % Collagen Binding Dried Rat [1]: 2%
Molecule: 176 (QWTCSGDEYTWHC[dN]YE; disulfide 4-13 (inferred)) [compound 176]

- % Collagen Binding Dried Rat [1]: 6%
Molecule: 142 (QWTCSADEYTWHCNYE; disulfide 4-13 (inferred)) [compound 142]

- % bound [8]: 35%
- % bound [9]: 37%
B7: SEQ ID NO: 157 (peptide)
peptide: YHACY[dQ]AGCWIW
modifications: disulfide 4-9 (inferred)

- % bound [8]: 10%
- % bound [9]: 8%
B8: SEQ ID NO: 161 (peptide)
peptide: YHACYQAGCW[dI]W
modifications: disulfide 4-9 (inferred)

- % bound [8]: 48%
- % bound [9]: 38%
B9: SEQ ID NO: 156 (peptide)
peptide: YHAC[dY]QAGCWIW
modifications: disulfide 4-9 (inferred)

- % bound [8]: 21%
- % bound [9]: 24%
B10: SEQ ID NO: 154 (peptide)
peptide: YH[dA]CYQAGCWIW
modifications: disulfide 4-9 (inferred)

- % bound [8]: 66%
- % bound [9]: 56%
B14: SEQ ID NO: 158 (peptide)
peptide: YHACYQ[dA]GCWIW
modifications: disulfide 4-9 (inferred)

- % bound [8]: 12%
- % bound [9]: 20%
B17: SEQ ID NO: 160 (peptide)
peptide: YHACYQAGC[dW]IW
modifications: disulfide 4-9 (inferred)
